# FireProtDB (doi:10.1006/jmbi.2001.4993)
# Settings: Equus caballus, pH 7, 10 °C, GdnHCl, sodium dithionite 0.5-2 mM, reversible: yes
# Sequence of Cytochrome c wild type, P00004 (P00004 whole entry): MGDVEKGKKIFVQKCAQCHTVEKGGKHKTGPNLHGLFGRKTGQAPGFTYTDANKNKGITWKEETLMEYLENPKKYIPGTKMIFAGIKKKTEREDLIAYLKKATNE
substance,measurement,setting,value
"Cytochrome c wild type, P00004",denaturant midpoint (higher = more stable),Absorbance,5.1 M
same,unfolding free energy,Absorbance,18.8 kcal/mol
same,denaturant midpoint (higher = more stable),"Absorbance, transition: 3",5.01 M
same,denaturant midpoint (higher = more stable),Fluorescence,5.1 M
same,unfolding free energy,Fluorescence,18.8 kcal/mol
same,denaturant midpoint (higher = more stable),"Fluorescence, transition: 3",5.02 M
